Measured values from US20170173114A1, “METHODS AND COMPOSITIONS FOR INDUCTION OF UCP1 EXPRESSION” (Joslin Diabetes Center, Inc., priority 2014, published 2017).
“Also recorded” adds a separate entry of the source.

Tested on: WT-1 brown preadipocytes
Experiment: Mitochondrial DNA copy number and mitochondrial gene expression in brown preadipocytes
Type: cell-based, murine
Conditions: 24 hours; vs control
Description: In order to determine whether the marked changes in mitochondrial respiration observed in preadipocytes treated with FGF6 is due to increased mitochondrial mass and/or changes in mitochondrial dynamics, in addition to increased UCP1 expression, mitochondrial DNA (mtDNA) copy number (as the ratio of CoxII (mtDNA) over β-globin (nuclear DNA)) and expression of genes involved in mitochondrial replication (e.g., mTFA, Nrf1 and Nrf2) in brown preadipocytes was measured.

B1: FGF6: fibroblast growth factor 6; recombinant human FGF from R&D Systems, or mouse FGF6 cDNA overexpressed by lentiviral vector (protein)
chain: KRQRRLYCNVGIGFHLQVLPDGRISGTHEENPYSLLEISTVERGVVSLFGVRSALFVAMNSKGRLYATPSFQEECKFRETLLPNNYNAYESDLYQGTYIALSKYGRVKRGSKVSPIMTVTHFLPRI
  expression of nuclear-encoded mitochondrial genes: not significantly altered
  mitochondrial DNA copy number (CoxII over β-globin): no significant difference; also recorded: does not alter
